Laboratory results published in PMC10409766, “Cryo-EM structures of human zinc transporter ZnT7 reveal the mechanism of Zn^2+ uptake into the Golgi apparatus” (Nature Communications, 2023).

What was measured:
[1] = target: T1, human ZnT7 (hZnT7) with an N-terminal PA-tag (human, UniProt Q8NEW0); test: ELISA + SEC; liposome ELISA on biotinylated hZnT7 proteoliposomes immobilised on streptavidin-coated microplates (with negative selection on SDS-denatured hZnT7); formation of stable complexes by fluorescence-detection SEC
T1 construct: human zinc transporter ZnT7, UniProt Q8NEW0; cDNA synthesized with codon optimization; the final model holds residues 22-376; In the antibody screening the purified protein was reconstituted into (biotinylated) proteoliposomes; also called hZnT7 WT; wild-type hZnT7

[2] = target: T1, human ZnT7 (hZnT7) with an N-terminal …; test: cryo-EM structure; single-particle cryo-EM of hZnT7-Fab complexes purified by SEC in 0.02% GDN (Talos Arctica for first maps, CRYO ARM 300II for final data); samples with 1 mM EDTA, with 10 µM Zn2+ or with 200 or 300 µM Zn2+ added; conditions: both partners purified
[3] = target: the molecule itself; test: as above

B1: mouse monoclonal antibody YN7114-08 against hZnT7 (parent of Fab#1) (antibody, V domains shown)
VH: EVQLQESGPGLVAPSQSLSITCTVSGFSLTNYAVHWVRQSPGKGLEWLGVIWSNGRTDYNAAFISRLSISKDNSKSQVFFKMNSLQADDTAIYYCARKLAYEGAMDYWGQGTSVTVSS
VL: DIVLTQSPASLAVSLRRRATISCRASESVDGYGHSFMHWYQQKSGQPPKLLIYRASNLESGVPARFSGSGSRTDFTLTIDPVEADDAATYYCQQSNEDPYTFGSGTKLEIK
notes: Whole antibody as screened by liposome ELISA and fluorescence-detection SEC; source: mouse hybridoma (MRL/lpr mice immunised with hZnT7 proteoliposomes)
binding result [1]: binds

B2: Fab#1 (YN7114-08), Fab fragment of a mouse monoclonal antibody against hZnT7 (Fab, V domains shown)
VH: EVQLQESGPGLVAPSQSLSITCTVSGFSLTNYAVHWVRQSPGKGLEWLGVIWSNGRTDYNAAFISRLSISKDNSKSQVFFKMNSLQADDTAIYYCARKLAYEGAMDYWGQGTSVTVSS
VL: DIVLTQSPASLAVSLRRRATISCRASESVDGYGHSFMHWYQQKSGQPPKLLIYRASNLESGVPARFSGSGSRTDFTLTIDPVEADDAATYYCQQSNEDPYTFGSGTKLEIK
notes: the model holds Fab heavy chain residues 1-234; also in the deposited PDB entries; the model holds Fab light chain residues 1-218; also called the Fab fragment; source: Fab fragment of a mouse monoclonal antibody (hybridoma, MRL/lpr mice immunised with hZnT7 proteoliposomes)
binding result [2]: binds

B3: human ZnT7 (hZnT7) with an N-terminal PA-tag (natural protein)
chain: MLPLSIKDDEYKPPKFNLFGKISGWFRSILSDKTSRNLFFFLCLNLSFAFVELLYGIWSNCLGLISDSFHMFFDSTAILAGLAASVISKWRDNDAFSYGYVRAEVLAGFVNGLFLIFTAFFIFSEGVERALAPPDVHHERLLLVSILGFVVNLIGIFVFKHGGHGHSHGSGHGHSHSLFNGALDQAHGHVDHCHSHEVKHGAAHSHDHAHGHGHFHSHDGPSLKETTGPSRQILQGVFLHILADTLGSIGVIASAIMMQNFGLMIADPICSILIAILIVVSVIPLLRESVGILMQRTPPLLENSLPQCYQRVQQLQGVYSLQEQHFWTLCSDVYVGTLKLIVAPDADARWILSQTHNIFTQAGVRQLYVQIDFAAM
notes: human zinc transporter ZnT7, UniProt Q8NEW0; cDNA synthesized with codon optimization; the final model holds residues 22-376; In the antibody screening the purified protein was reconstituted into (biotinylated) proteoliposomes; also called hZnT7 WT; wild-type hZnT7
stoichiometry N [3]: 2

B4: hZnT7ΔHis-loop (residues His176 to Pro221 deleted), PA-tagged (natural protein, human)
chain: MLPLSIKDDEYKPPKFNLFGKISGWFRSILSDKTSRNLFFFLCLNLSFAFVELLYGIWSNCLGLISDSFHMFFDSTAILAGLAASVISKWRDNDAFSYGYVRAEVLAGFVNGLFLIFTAFFIFSEGVERALAPPDVHHERLLLVSILGFVVNLIGIFVFKHGGHGHSHGSGHGHSSLKETTGPSRQILQGVFLHILADTLGSIGVIASAIMMQNFGLMIADPICSILIAILIVVSVIPLLRESVGILMQRTPPLLENSLPQCYQRVQQLQGVYSLQEQHFWTLCSDVYVGTLKLIVAPDADARWILSQTHNIFTQAGVRQLYVQIDFAAM
notes: human zinc transporter ZnT7, UniProt Q8NEW0, with the major portion of the His-loop (His176 to Pro221) deleted; Primers are in Supplementary Data 1; The dimer (copies 2) follows from the 'OF-OF form' and the C2 symmetry; also called hZnT7∆His-loop; pcDNA3.1-PA-hZnT7ΔHis-loop; source: HEK293T, transfected (pcDNA3.1, PEI), purified (anti-PA-tag antibody beads, SEC)
binding result [3]: binds
